Experimental findings from patent US20180282397A1 (UNIVERSITY OF SOUTHERN CALIFORNIA, published 2018) are described below.

Assay [1] has as its target T1, H-Ras(G12V)-GTP (Homo sapiens (Human), UniProt P01112 1-166).
T1 construct: also called H-Ras(G12V)-GppNHp; active H-Ras(G12V); not shown: avitag and His tag at the 5' (N-terminal) end
The assay can be described thus: radioactive in vitro pull-down on Ras-GTP beads (FIG. 6b).

In another assay the target is T2, Rap1B(G12V)-GTP (Pan troglodytes (Chimpanzee), UniProt A5A6J7 1-166, biotinylated (pDW363 vector, BirA)).
T2 construct: also called Rap1B-GTP
T2 chain: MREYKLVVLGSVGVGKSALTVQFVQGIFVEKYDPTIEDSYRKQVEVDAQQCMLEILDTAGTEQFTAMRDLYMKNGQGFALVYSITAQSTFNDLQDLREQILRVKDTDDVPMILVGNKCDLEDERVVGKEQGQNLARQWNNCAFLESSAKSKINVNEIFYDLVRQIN
Nature of the assay: radioactive in vitro pull-down of [35S]Met-labelled RasIn2 on bead-immobilised target [c].

A further assay has as its target T3, Arf1-GTP (UniProt P84077 18-179, biotinylated (pDW363 vector, BirA)).
T3 construct: range 18-179
The description is as above.

The target of assay [2] is T4, K-Ras(G12V, Y32R) (human, UniProt P01116-2 1-185, limits assumed, biotinylated (pDW363 vector, BirA)).
T4 construct: Made by site-directed mutagenesis of pDW363 K-Ras(G12V); also called Y32R Switch I mutant; Y32R mutation
The assay can be described thus: radioactive in vitro pull-down of [35S]Met-labelled RasIn2 on bead-immobilised target [d].

The target in assay [3] is T5, K-Ras(G12V)-GTP (human, UniProt P79800 1-166 (Meleagris gallopavo entry), biotinylated in vivo on the avitag (BirA)).
T5 construct: Active state: immobilised on neutravidin/streptavidin beads and exchanged with GTP or GTPγS; Same protein as m18, other nucleotide; also called K-Ras(G12V)-GTPγS; K-Ras(GTPγS); not shown: avitag and His tag at the 5' (N-terminal) end
The assay can be described thus: radioactive pull-down of RasIn1 on Ras-GTP beads; competitor Raf-RBD in molar excess.

Assay [4] addresses T4, K-Ras(G12V, Y32R). The assay can be described thus: radioactive in vitro pull-down of [35S]Met-labelled RasIn1 on bead-immobilised target [b].
Assay [5] addresses T1, H-Ras(G12V)-GTP. The assay can be described thus: SPR, KD of RasIn2 against KD of the parent clone RasIn1.
Assay [6] concerns the target T1, H-Ras(G12V)-GTP. The assay can be described thus: SPR, Biacore T100, biotinylated H-Ras(G12V)-GppNHp on streptavidin chip, MBP-intrabody fusion injected, 25 C. (In SPR one partner is held on a chip, and binding of the other changes the refractive index at the surface.)
The target of assay [7] is T1, H-Ras(G12V)-GTP. Nature of the assay: ELISA, biotin-labeled H-Ras(G12V)-GppNHp on streptavidin plate, anti-FLAG detection, OD450. (In an ELISA, binding on a coated surface is turned into a signal by an enzyme label.)
The target in assay [8] is T5, K-Ras(G12V)-GTP. The assay can be described thus: radioactive in vitro pull-down of [35S]-labelled RasIn1 and point mutants on immobilised K-Ras-GTP [a].
Assay [9] deals with T1, H-Ras(G12V)-GTP. Nature of the assay: SPR (Biacore T100), H-Ras(G12V) on a streptavidin chip exchanged with GppNHp, maltose binding protein-intrabody fusion injected [e].

Numbering of substitutions follows the chain as printed. Names and notes keep the numbering of the source.

B1: RasIn2 (designed binder)
chain: MLEVKEASPTSIQISWSIVFGKHDRYYRITYGETGGNSPVQEFTVPGSKSAATISGLKPGVDYTITVYAVTFRWPKRRLVRPISINYRT
notes: also called Clone 3; radiolabeled RasIn2
Turning to B1, the “% binding (pull-down)” value with H-Ras(G12V)-GTP [1] was greater than 70%. In addition, the binding result with Rap1B(G12V)-GTP is reported as “no binding”; with Arf1-GTP it was “no binding”; in the assay with K-Ras(G12V, Y32R) [2], “no binding”.

B2: RasIn1 (designed binder)
chain: B1 chain with S17G, I18P, G21S, K22A, H23Y, D24S, K76M, R77P
notes: also called radiolabeled RasIn1; parental RasIn1 clone
With B2, in the assay with K-Ras(G12V)-GTP [3], the “fold decrease of binding with Raf-RBD” value came out at 12 fold. The binding result with K-Ras(G12V, Y32R) [4] was “no binding”.

B3: RasIn2 maltose binding protein fusion (designed binder, not shown: large carriers)
chain: B1 chain
In the case of B3, the “fold increase in affinity versus RasIn1” value with H-Ras(G12V)-GTP [5] was roughly 20 fold. The Kd (usually a measure of binding affinity in units of concentration) with H-Ras(G12V)-GTP [6] amounted to 0.12 µM.

B4: FLAG-tagged RasIn2 (designed binder, not shown: large carriers)
chain: B1 chain
notes: also called RasIn2 protein
For B4, the “fold ELISA signal versus Raf-RBD” value with H-Ras(G12V)-GTP [7] is roughly 10 fold.

B5: Clone 4 (designed binder)
chain: B1 chain with S17G, I18S, G21R, K22A, H23D, D24S, K76R, R77P, V80L, R81W
notes: also called clone 4 of maturation pool 5
Regarding B5, the “% binding (pull-down)” value with H-Ras(G12V)-GTP [1] was greater than 70%.

B6: RasIn1 R77A (designed binder)
chain: B1 chain with S17G, I18P, G21S, K22A, H23Y, D24S, K76M, R77P, R78A
modifications: [35S]Met radiolabel from in vitro translation; letters unchanged
notes: FG loop mutant
B6: in the assay with K-Ras(G12V)-GTP [8], the binding result is “no binding”.

B7: RasIn1 maltose binding protein fusion (designed binder, not shown: large carriers)
chain: B1 chain with S17G, I18P, G21S, K22A, H23Y, D24S, K76M, R77P
Turning to B7, the Kd stood at 2.1 µM in the assay with H-Ras(G12V)-GTP [6] and 2 µM with H-Ras(G12V)-GTP [9].

B8: RasIn1 S24R (designed binder)
chain: B1 chain with S17G, I18P, G21S, K22A, H23Y, D24R, K76M, R77P
modifications: [35S]Met radiolabel from in vitro translation; letters unchanged
notes: Radiolabeled point mutant of RasIn1, BC loop
For B8, in the assay with K-Ras(G12V)-GTP [8], the binding result is listed as “no binding”.

B9: Clone 2 (designed binder)
chain: B1 chain with S17E, I18Y, K22R, V80L, R81W
notes: also called Clone 2 of maturation pool 5
On to B9, for which the “% binding (pull-down)” value in the assay with H-Ras(G12V)-GTP [1] is greater than 70%.

B10: RasIn1 R72A (designed binder)
chain: B1 chain with S17G, I18P, G21S, K22A, H23Y, D24S, R73A, K76M, R77P
modifications: [35S]Met radiolabel from in vitro translation; letters unchanged
notes: FG loop mutant
For the molecule B10, the binding result in the assay with K-Ras(G12V)-GTP [8] was “no binding”.

B11: Clone 1 (designed binder)
chain: B1 chain with S17G, I18R, G21S, K22L, H23D, D24S, K76N, R77P
notes: also called Clone 1 of maturation pool 5
On to B11, for which, in the assay with H-Ras(G12V)-GTP [1], the “% binding (pull-down)” value was greater than 70%.
